Measured values from the Human Domainome abundance scans (Beltran et al. 2025).
± gives the uncertainty stated by the source.

B1: CD2-associated protein, residues 1 to 59; numbered along this chain, Q9Y5K6 (parent)
chain: MVDYIVEYDYDAVHDDELTIRVGEIIRNVKKLQEEGWLEGELNGRRGMFPDNFVKEIKR

Variants of: B1
Assay: abundance fitness (aPCA) (normalised: wild type 0, dead -1); higher = more abundant; growth selection in yeast, the domain comes from the species named
Details: Homo sapiens

L32N and L32I are within error of each other in abundance fitness: -0.078 ± 0.16 for the first, -0.238 ± 0.15 for the second.

L32E and L32M are within error of each other in abundance fitness: -0.088 ± 0.27 for the first, -0.159 ± 0.24 for the second.

L32C and L32Y are within error of each other in abundance fitness: 0.003 ± 0.11 for the first, -0.206 ± 0.18 for the second.

L32H and L32A are within error of each other in abundance fitness: -0.001 ± 0.12 for the first, 0.118 ± 0.092 for the second.

L32K and D11N are within error of each other in abundance fitness: 0.01 ± 0.15 for the first, -0.086 ± 0.17 for the second.

First: D3V
Second: D3M
The abundance fitness of the first is lower: -0.379 ± 0.067 for the first, -0.135 ± 0.072 for the second.

First: D3C
Second: D3P
The abundance fitness of the first is higher: -0.237 ± 0.085 for the first, -0.436 ± 0.11 for the second.

D3E and D3N are within error of each other in abundance fitness: 0.014 ± 0.065 for the first, 0.012 ± 0.18 for the second.

D3L and D3K are within error of each other in abundance fitness: -0.267 ± 0.051 for the first, -0.297 ± 0.079 for the second.

G23N and G23A are within error of each other in abundance fitness: -0.581 ± 0.24 for the first, -0.911 ± 0.29 for the second.

G23S and G23R are within error of each other in abundance fitness: -0.651 ± 0.14 for the first, -0.856 ± 0.18 for the second.

Compared with G23L, W37V is higher in abundance fitness: -1.17 ± 0.28 for the first, -0.253 ± 0.093 for the second.

W37Q and W37M are within error of each other in abundance fitness: -0.32 ± 0.12 for the first, -0.219 ± 0.15 for the second.

Compared with W37G, D15C is higher in abundance fitness: -0.779 ± 0.25 for the first, -0.284 ± 0.17 for the second.

D15Y and D15I are within error of each other in abundance fitness: -0.204 ± 0.11 for the first, -0.415 ± 0.24 for the second.

D15P and D15S are within error of each other in abundance fitness: -0.13 ± 0.2 for the first, -0.098 ± 0.06 for the second.

D15H and D15E are within error of each other in abundance fitness: -0.078 ± 0.14 for the first, 0.002 ± 0.094 for the second.

First: D15A
Second: V29T
The abundance fitness of the first is higher: -0.011 ± 0.092 for the first, -0.378 ± 0.2 for the second.

V29K and V29D are within error of each other in abundance fitness: -0.999 ± 0.28 for the first, -0.866 ± 0.35 for the second.

Going from V29R to V29E, the abundance fitness rises from -1.04 ± 0.31 to -0.251 ± 0.24.

V29M and I20P are within error of each other in abundance fitness: -0.883 ± 0.43 for the first, -0.762 ± 0.22 for the second.

Compared with I20S, I20F is higher in abundance fitness: -0.743 ± 0.2 for the first, -0.373 ± 0.13 for the second.

First: I20V
Second: I20W
The abundance fitness of the first is higher: -0.225 ± 0.082 for the first, -0.736 ± 0.39 for the second.

G40V and G40L are within error of each other in abundance fitness: -0.904 ± 0.43 for the first, -0.945 ± 0.24 for the second.

Compared with G40R, A12K is higher in abundance fitness: -0.858 ± 0.23 for the first, -0.205 ± 0.14 for the second.

A12T and A12N are within error of each other in abundance fitness: -0.716 ± 0.25 for the first, -0.618 ± 0.22 for the second.

A12H and A12V are within error of each other in abundance fitness: -0.924 ± 0.43 for the first, -1.02 ± 0.24 for the second.

A12M and A12D are within error of each other in abundance fitness: -0.842 ± 0.22 for the first, -0.846 ± 0.44 for the second.

A12R and A12C are within error of each other in abundance fitness: -0.416 ± 0.07 for the first, -0.35 ± 0.14 for the second.

L18R and L18V are within error of each other in abundance fitness: -0.504 ± 0.32 for the first, -0.499 ± 0.14 for the second.

First: L18M
Second: L18Y
The abundance fitness of the first is higher: -0.244 ± 0.11 for the first, -0.904 ± 0.43 for the second.

L18C and L18K are within error of each other in abundance fitness: -0.661 ± 0.49 for the first, -0.737 ± 0.46 for the second.

Q33S and Q33H are within error of each other in abundance fitness: 0.03 ± 0.069 for the first, -0.119 ± 0.091 for the second.

Q33Y and Q33I are within error of each other in abundance fitness: -0.242 ± 0.081 for the first, -0.36 ± 0.089 for the second.

Q33M and Q33F are within error of each other in abundance fitness: -0.238 ± 0.23 for the first, -0.182 ± 0.06 for the second.

F53G and F53E are within error of each other in abundance fitness: -0.145 ± 0.089 for the first, -0.155 ± 0.21 for the second.

First: F53V
Second: F53T
The abundance fitness of the first is lower: 0.023 ± 0.083 for the first, 0.205 ± 0.098 for the second.

Compared with F53D, F53I is higher in abundance fitness: -0.433 ± 0.14 for the first, -0.119 ± 0.14 for the second.

Compared with K55E, K55C is higher in abundance fitness: -0.489 ± 0.3 for the first, -0.027 ± 0.15 for the second.

K55I and K55N are within error of each other in abundance fitness: -0.177 ± 0.12 for the first, -0.272 ± 0.17 for the second.

Going from K55G to K55R, the abundance fitness rises from -0.216 ± 0.1 to 0.009 ± 0.072.

K55D and K55F are within error of each other in abundance fitness: -0.755 ± 0.33 for the first, -0.961 ± 0.42 for the second.
